Experimental data from the nanobody polyreactivity screen of Harvey et al. (2022).

Experiment: yeast display, Sf9 membrane polyspecificity reagent, FACS + sequencing; frameworks hold sequencing errors
Outline: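 A synthetic nanobody library was expressed on Saccharomyces cerevisiae BJ5465 by galactose induction for 36–48 hours. The library was stained for 1 hour at 4 °C with 10% biotinylated, detergent-solubilized Sf9 membrane reagent and enriched with streptavidin microbeads before FACS. Low and high (top ~1%) gates were set on anti-HA fluorescence for expression and streptavidin fluorescence for reagent binding, and each polyreactivity label reflects the gate of origin.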
In the case of “QVQLVESGGGLVQAGGSLRLSCAASGSTFFTYTMGWYRQAPGKERELVATITTSGGSTYYADSVKGRFTISRDNAKNTVYLQMNSLKPEDTAVYYCAADWDPGYYVQYGYDYWGQGTQVTVSS”, the “polyreactivity (PSR sort gate)” value is reported as “low polyreactivity”.
With “QVQLVESGGGLVQAGGSLRLSCAASGFTFDEKAMGWYRQAPGINYSGASTYYADSVKGRFTISRDNAKNTVYLQMNSLKPEDTAVYYCAAEVVAQMNYWGQGTQVTVSS” the “polyreactivity (PSR sort gate)” value was “low polyreactivity”.
For “QVQLVESGGGLDQAGGSLRLSCAASGSIYWNNAMGWYRQAPRKERELDAAISKSGTRTYYADSVKGRFTISRDNAKNTVYLQMNSLKPEDTAVYYCNALLSDSGTYAGDDYWGQGTQVTVSS”, the “polyreactivity (PSR sort gate)” value was “high polyreactivity”.
For “QVQLVESGGGLVQAGGSLRLSGAASGRIFAQYAMGWYRPAPAKERELVAAITAGDDTYADSVKGRFTISRDNAKNTVYLQMNSLKPEDTAVYYCAAETWDLTWWGAYDLGEYWGQGTQVTVSS”, the “polyreactivity (PSR sort gate)” value was “high polyreactivity”.
For “QVQLVESGGGVVQAGGSLGLSCAASGGIFAPYPMGWNRQAPGKERELAAAISSSDGSTYYADSVKGRFTISRDNAKNTVYLQMNSLKTEDTAVYYCAADYREDYGYWGQGTQVTVSS”, the “polyreactivity (PSR sort gate)” value was “low polyreactivity”.
In the case of “QVQLVESGGGLVQAGGSLRLSCAASGSTFVRYAMGWYRQAPGKDRELVARISSAGSTNYADSVKGRFTISRDNAKNTVYLQMNSLKPEDTAVYYCAATTKAGVSSGQGDSWGQGTQVTVSS”, the “polyreactivity (PSR sort gate)” value is reported as “low polyreactivity”.
With “QVQLVESGGGVVQAGGSLRLSCAASGSTFYLTVLGWYRKAPGKERELVAASSSSGGSTYYADSVKGRFTISRDNAKNTVYLQMNSLKPEDTAVYYCNKVSAFPHYSGYAYWGQGTQVPVSS” the “polyreactivity (PSR sort gate)” value was “low polyreactivity”.
In the case of “QVQLVESGGGLVQAGGSLRLSCAASGFTFFYYVMGWYRQAPGKERELVAAISSGGSTYYADSVKGRFTISRDNAKNTVYLQMNSLKPEDTAVYYCNAVYRSTWWGYDYWGQGTQVTVSS”, the “polyreactivity (PSR sort gate)” value is reported as “high polyreactivity”.
In the case of “QVQLVESGGGLVQAGGSLRLSCAASGFILNWYAMGWYRQAPGKERELVAAISWTTSDTYYADSVKGRFTISRDNAKNTVYLQMNSLKPEDTAVYYCNAKFYAYYVTFVLHYDYWGQGTQVTVSS”, the “polyreactivity (PSR sort gate)” value is reported as “low polyreactivity”.
With “QVQLEESGGGLVQAGGSLRLSCAASGSIFPFYAMGRYRQAPGKERELVAAISDRGGSTYYADSVKGRFTISRDNAKNTVYLQMNSLKPEDTAVYYCAKGGGVSQGYTDEYDYWGQGTQVTVSS” the “polyreactivity (PSR sort gate)” value was “low polyreactivity”.
For “QVQLVESGGGLVQAGGSLRLSCAASGLIFSYYTMGWYRQAPGKERELVAAISSSAGSTYYADSVKGRCTISRDNAKNTVYCQMNSLKPEDTAVYYCNVRTLVQHHSSYSSRYESWGQGTHVTVSS”, the “polyreactivity (PSR sort gate)” value was “high polyreactivity”.
With “QVQLVESGGGLVQAGGSLRLSCAASGITFQYYAMGWYRQAPGKERELFARISSSGGRTFYADSVKGRFTISRDNAKNTVYLQMNSLKQEDTAVYYCAAGSLSLSNSTVWFEYDYWGQGTQVSVSS” the “polyreactivity (PSR sort gate)” value was “high polyreactivity”.
In the case of “QVQLVESGGGLVQAGGSLRLSCAASGRTFGRNAMGWYRQAPRKERELVAAISDRGVSTYYADSVKGRFTISRDNAKNTVYLQMNSLKPEDTAVYYCAAVFWVDILPGDYWGQGTQVTVSS”, the “polyreactivity (PSR sort gate)” value is reported as “low polyreactivity”.
For “QVQLVESGGGLVQAGGSLRLICAASGSIFGYYAMGWYRQAPGKERELVAAISYSGSRTYYADSVKGRFTISRDNAKNTVYLQMNSLKPEDTAVYYCAARGSRLYSSWRGDYWGQGTQVTVSS”, the “polyreactivity (PSR sort gate)” value was “high polyreactivity”.
For “QVQLVESGGGLVQAGGSLRLSCAASGITLVFNAMGWYRQAPGKERELVAAITSGGITNYADSVKGRFTISRDNAKNTVYLQMNSLKPEDTAVYYCATDYGYFHYPWCPLWGYEYWGQGTQVTVSS”, the “polyreactivity (PSR sort gate)” value was “low polyreactivity”.
For “QVQLVESGGGLVQAGGSLRLSCAASGSIFYPNAMGWYRQAPGKERELVADINTSGGDTYYADSVKGRFTISRDNAKNTVYLQMNSLKPEDTAVYYGAAEGYLYQYTSKPSDYWGQGTQVTVSS”, the “polyreactivity (PSR sort gate)” value was “low polyreactivity”.
In the case of “QVQLVESGGGLVQAGGSLRLSCAASGFTFVSNALGWYRQAPGKETELVADITSDGSTNYADSVKGRFSISRDNAKNTVYLQMNSLKPEDTAVYYCATDQRSHTWVNQFDYWGLGTQVTVSS”, the “polyreactivity (PSR sort gate)” value is reported as “low polyreactivity”.
With “QVQLVESGGGLVQAGGSLRLSCAASGSIFPPYALGWYRQAPGKERELVAAIDWGGSSTYYADSVKGRFTISRDNAKYTVYLQMNSLKPEATAVYYCAAEVVHGYYLYEYWGQGTQVTVSS” the “polyreactivity (PSR sort gate)” value was “high polyreactivity”.
In the case of “QVQLVESGGGLVQAGGSLRLSCAASGSTFGLYTMGWYRQAPGKARELVAVINRSGGSTYYADSVKGRFTISRDNAKNTVYLQMNSLKPEDTAVYYCAAQRAVAGGRLDYWGQGTQVTVSS”, the “polyreactivity (PSR sort gate)” value is reported as “high polyreactivity”.
For “QVQLVESGGGLVQAGGSLRLSCAASGRTFRSYAMGWYRQAPGKERELVAAISSGTSTDYADSVKGRFTISRDNAKNTVYLQMNSLKPEDTAVYYCAYDYWGQGTQVTVSS”, the “polyreactivity (PSR sort gate)” value was “low polyreactivity”.
With “QDQLVESGGGLVQAGGSLRLSCAASGRIFVHNAMGWYRQAPGKERELVAAIYQNGGRTYYADSVKGRFTISRDNAMNTVYLQMNSLKPEDTAVYYCAAGQARAGLIGGYWGQGTQVTVSS” the “polyreactivity (PSR sort gate)” value was “high polyreactivity”.
In the case of “QVQLVESGGGLVQAGGSLRLSCAASGSTFRYYAKGWYRQAPGKERELVAAIAAGSNTNYADSVKGRFTISRDNAKNTVYLQMNSVKPEDTAVFYCAVASYARVQYEYWGQGTQVTVNS”, the “polyreactivity (PSR sort gate)” value is reported as “low polyreactivity”.
With “QVQLVESGGGLVQAGGSLRLSCAASGRIFWYNAMGWYRQAPGKQRELVAAITSGGRTYYADSVKGRFTISRDNAKNTVYLQMNSLKPEDTAVYYCAATYPSYTYDYWGQGTQVTVSS” the “polyreactivity (PSR sort gate)” value was “low polyreactivity”.
For “QVQLVESGGGLVQAGGSLRLSCAASGSTLSFNAMGWYRQAPGKERELVAAITSSGGSTYYADSVKGRFTISRDNAKNTVYLQMKSLKPEDTAVYYCAADRYTVRMDYWGQGTQVTVSS”, the “polyreactivity (PSR sort gate)” value was “high polyreactivity”.
In the case of “QVQLVESGGGLVQAGGSLRLSCAASGRTSVWYTMGWYRQAPGKEREFVASITGSGTCYADSVKGRFTISRDNAKNTVYLQMNSLKPEDTAVYYCAAGGKYYTFGFRGGTYDYWGQGTQVTVSS”, the “polyreactivity (PSR sort gate)” value is reported as “high polyreactivity”.
With “QVQLVESGGGLVQAGGSLRLSCAASGIIFGWYAMGWYRQAPGKERELVADISSDDSTYYADSVKGRFTISRDNAKNTVYLQMNSLKPEDTAVYYCAADTSYGSYWSLYYYNYYWGQGTQVTVSS” the “polyreactivity (PSR sort gate)” value was “high polyreactivity”.
In the case of “QVQLVESGGGLVQAGGSLRLSCAASGYILPKNTMGWYRQAPGKERELVAAISWSGGSTFYADSVKGRFTISRDNAKNTVYLQMNSLKPEDTAVYYCAADRSWSWYYRYDYWGQGTQVTVSS”, the “polyreactivity (PSR sort gate)” value is reported as “low polyreactivity”.
For “QVQLVESGGGLVQAGGSLRLSCAASGSNFNVYVMGWYRQAPGKERELVAAISWGDGSTSYADSVKGRFTISRDHAKNTVYLQMNSLKPEDTAVYYCNRRHSYPYDYWGQGTQVTVSS”, the “polyreactivity (PSR sort gate)” value was “high polyreactivity”.
With “QVQLVESGGGLVQAGGSLRLSCAASGYNFRQYAMGWYRQATGKEREFVAAISQTGGSTYYADSVKGRFTISRDNANNTVYLQMNSLKPEDTAVYYCAARYRGQRYRKLDYWGQGTQVTVSS” the “polyreactivity (PSR sort gate)” value was “high polyreactivity”.
With “QVQLVESGGALVQAGGSLRLSCAASGTTFHSYPMGWYRQAPGKERELVAAISNGGRTNYADSVNGRFTISRDNAKNTVYLQMNSLKPVDTAVYYCAVRLYRDSSYYYWGQGTQVTVSS” the “polyreactivity (PSR sort gate)” value was “low polyreactivity”.
For “QVQLVESWGGLVQAGCSLRLSCAPSGSIFRTNAMGWYREAPGKQRELLAAITGSGGSTNYADSVKGRFTISRDNAKNTVYLQMNSLKPEDTADYYCAAEFGSLLSPYNYYYWGQGTQVTVSS”, the “polyreactivity (PSR sort gate)” value was “low polyreactivity”.
In the case of “QVQLVESGVGLVQAGGSLRLSCAASGSTFSAYTMGWYRQAPGKERELVAAIRFDGGRTYYADSVKGRFTISRDNAKNTVYLQMNSLKPEDTAVYYCRAWQSYSYDYSGQGTQVTVSS”, the “polyreactivity (PSR sort gate)” value is reported as “high polyreactivity”.
For “QVQLQESGGGLVQAGGSLRLSCAASGNIYEADIMGWYRQAPGKERELVTSITDGGSTNYADSVKGRFTISRDNAKNTVYLQMNSLKPEDTAVYYCAAIAYPDIPTSFDYNSDYSYWGQGTQVTVSS”, the “polyreactivity (PSR sort gate)” value was “low polyreactivity”.
In the case of “QVQLVESGGGLVQAGGRLRFSCAASGSTFRPNAMGWYRQAPGNERELVAAITRPGGSTFYADSVKGRFTISRDYAKHTVYLQMNSLKPEDTAVYYCATRQRVDLAPLARYGYWGQGTQVTVSS”, the “polyreactivity (PSR sort gate)” value is reported as “low polyreactivity”.
In the case of “QVQLVESGGGLVQAGGSLRLSCAASGLILSAYAMGWYRQAPGKERELVAAISGSGGRTYYADSVKGRFTISRDNAKNTVYLQMNSLKPEDTAVYYCAAPYTYVGSYTYNYWGQGTQVTVSS”, the “polyreactivity (PSR sort gate)” value is reported as “high polyreactivity”.
In the case of “QVQLVESGGGLVQAGGSLRLSCAASGSIFRYNTKGWYRQATGKERELDAAINWSGGNTYYADSVKGRFTISRDNAKNTVYLQMNSLKPEDTAVYYCAARWPSYVSYRYYTKYDYWGQGTQVTVSS”, the “polyreactivity (PSR sort gate)” value is reported as “high polyreactivity”.
For “QVQLVESGVGLVQAGGSHRLSCAASGFTFLINAMGWYRQEPWKERELVAAIRSGGSTNYADSVKGRFTISRDNAKNTVYLQMNSLKPEETAVYYCAARRYYPDKYRYGYWGQGTQVTVSS”, the “polyreactivity (PSR sort gate)” value was “high polyreactivity”.
In the case of “QVQLVESGGGLVQAGGSLRLSCAASGSTFYYYAMGWYRPAPGKERELVAAIRSDVSTNYADSVKGRFTISRDNAKNTVYLQMNSLKPEDTAVYYCAARFPWNRVTYDYWGQGTQVTVSS”, the “polyreactivity (PSR sort gate)” value is reported as “low polyreactivity”.
With “QVQLVESGGGLVQAGGSLRLSCAASGRILGDYAMGWYRQAPGTEREFVAAIDYNGGSTNYADSVMGRFTISRDNAKNTVYFQMNSLKPEDTAVYYCAKTDGFYRGYGYWGQGTQVTVSS” the “polyreactivity (PSR sort gate)” value was “low polyreactivity”.
For “QVQLVESGGGLVQAGGSLRLSCAASGITFYDYAMGWYRQAPGKERELVAAINSSGVRTYYADSVKGRFTISRDNAKNTVYLQMNSLKPEVTAVYYCAAVRRGPYISRSDMDYYWGQGTQVTVSS”, the “polyreactivity (PSR sort gate)” value was “high polyreactivity”.
With “QVQLVESGGGLVQAGGSLRLSCAASGLTFSDYAMGWYRQAPGKEREFVAALTRNGGSTRYADSVKGRFTISRDNAKNTVYLQMNSLKPEDTAVYYCNADGWGDRFWSNFRFDYWGQGTQVTVSS” the “polyreactivity (PSR sort gate)” value was “low polyreactivity”.
In the case of “QVQLVESGGGLVQAGGSLRLSCAASGSIFGFYDMGWYRQAPGKERELVAAITTGGSTYYADSVKGRFTISRDNAKNTVYLQMNSLKPEDTAVYYCAKERWFPYERNDYWGQGTQVTVSA”, the “polyreactivity (PSR sort gate)” value is reported as “low polyreactivity”.
In the case of “QVQLVESGGGLVQAGGSLRLSCAASGYNFERNAMGWYRPAPGKERELVAAITDDGDDTYYADSVKGRFTISRDNAKNTVYLQMNSLKPEDTAVYYCAKDLYYGDYYYWGQGTQVTVSS”, the “polyreactivity (PSR sort gate)” value is reported as “low polyreactivity”.
